19 molecules from paper PMC8575462, “PP2A/B55α substrate recruitment as defined by the retinoblastoma-related protein p107” (eLife, 2021) can be followed below.

Assay [1] addresses purified PP2A/B55α holoenzyme (trimeric Flag-B55α/PP2A holoenzyme), P63151;P30153;P67775. The assay can be described thus: peptide competition of GST-p107 R1R2 pull-down of purified PP2A/B55α, western blot quantified with ImageJ. Conditions: lower B55α signal = peptide competes for B55α, read off a plot.
The next assay addresses Flag-pRB (UniProt P06400). The assay can be described thus: co-immunoprecipitation (anti-Myc IP), western blot quantitation. Conditions: 293T cells, co-transfected; parent: est. 1.0; read off a plot. Background: In western blotting, separated proteins are transferred to a membrane and probed.
The target in the next assay is PP2A/A. The assay can be described thus: YFP pulldown, mass spectrometry. The conditions noted are these: -log10 p-value est. 2.2; read off a plot.
The target of a further assay is B55α. Put plainly: YFP pulldown, mass spectrometry. The conditions noted are these: -log10 p-value est. 2.6; read off a plot.
Assay [2] has as its target T1, purified monomeric full-length B55α (M1-N447) (UniProt P63151 1-447).
T1 construct: B55α M1-N447; also called B55α_(1-447); purified B55α; source: Expi293F, transfected, purified (GFP-nanobody beads, TEV cleavage, Mono Q); not shown: His6, N-terminal, cleaved; GFP, N-terminal, cleaved
T1 sequence (looked up): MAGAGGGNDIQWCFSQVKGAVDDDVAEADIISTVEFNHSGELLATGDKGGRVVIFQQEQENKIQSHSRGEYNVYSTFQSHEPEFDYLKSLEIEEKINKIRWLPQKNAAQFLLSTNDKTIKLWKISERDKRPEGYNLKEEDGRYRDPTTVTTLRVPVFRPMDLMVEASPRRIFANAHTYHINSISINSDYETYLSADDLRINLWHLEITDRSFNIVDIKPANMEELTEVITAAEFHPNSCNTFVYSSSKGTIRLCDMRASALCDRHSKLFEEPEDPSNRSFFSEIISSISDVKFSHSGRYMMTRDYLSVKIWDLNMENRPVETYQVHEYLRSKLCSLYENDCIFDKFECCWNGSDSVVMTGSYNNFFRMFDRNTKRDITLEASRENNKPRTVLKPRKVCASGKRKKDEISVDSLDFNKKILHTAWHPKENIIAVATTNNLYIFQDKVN
The assay can be described thus: NMR titration; 2D [1H,15N] HSQC of 15N-labeled p107 (M612-S687) with and without unlabeled B55α mixed at 1:1 ratio; 283 K; 20 mM sodium phosphate pH 6.8, 250 or 50 mM NaCl, 0.5 mM TCEP. Conditions: both partners purified.

The mark [3] stands for this setting: Peptides (at 300 µM), no-peptide control est. 0.68, parent: est. 0.08.
Where [4] appears, read: Peptides (at 300 µM), no-peptide control est. 0.68, parent: est. 0.09.
Setting [5] is: peptide 120 µM, no-peptide control est. 0.68.
[6] abbreviates: peptide 240 µM, no-peptide control est. 0.68, parent: est. 0.07.
Where [7] appears, read: Peptides (at 300 µM), no-peptide control est. 0.72, parent: est. 0.32.

Sequence of Flag-pRB (P06400 whole entry): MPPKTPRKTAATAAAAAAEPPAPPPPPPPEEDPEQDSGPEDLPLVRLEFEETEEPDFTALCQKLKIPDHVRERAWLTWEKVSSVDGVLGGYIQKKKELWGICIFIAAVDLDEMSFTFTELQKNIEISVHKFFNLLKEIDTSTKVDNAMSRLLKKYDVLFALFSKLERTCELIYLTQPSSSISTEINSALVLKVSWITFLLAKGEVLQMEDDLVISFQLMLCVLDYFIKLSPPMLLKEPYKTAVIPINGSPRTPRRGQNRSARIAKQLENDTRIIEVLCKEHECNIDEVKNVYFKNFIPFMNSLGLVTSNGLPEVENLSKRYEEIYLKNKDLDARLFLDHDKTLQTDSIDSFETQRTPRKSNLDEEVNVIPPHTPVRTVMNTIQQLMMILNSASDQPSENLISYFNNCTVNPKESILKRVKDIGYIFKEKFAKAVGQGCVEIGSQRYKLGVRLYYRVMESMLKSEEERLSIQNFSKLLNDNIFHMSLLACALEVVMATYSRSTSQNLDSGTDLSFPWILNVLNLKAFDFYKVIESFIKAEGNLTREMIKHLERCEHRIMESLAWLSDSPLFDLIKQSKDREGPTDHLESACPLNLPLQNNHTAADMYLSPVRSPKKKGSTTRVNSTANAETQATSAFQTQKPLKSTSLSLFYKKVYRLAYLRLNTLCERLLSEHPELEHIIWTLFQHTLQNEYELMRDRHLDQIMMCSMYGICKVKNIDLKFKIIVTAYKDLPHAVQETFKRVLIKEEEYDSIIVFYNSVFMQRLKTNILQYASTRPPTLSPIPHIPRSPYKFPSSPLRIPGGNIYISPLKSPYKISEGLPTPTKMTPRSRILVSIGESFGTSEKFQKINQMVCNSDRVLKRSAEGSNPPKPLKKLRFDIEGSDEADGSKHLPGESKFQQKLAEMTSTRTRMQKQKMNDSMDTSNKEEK

Regarding “R1 peptide (synthetic p107 peptide encompassing the R1 region) M618A”, the response in assay [1] (setting [3]) was 0.3.

pS615-R1 phosphopeptide, wildtype R621A: the response in assay [1] (setting [4]) was found to be 0.82.

“R1 peptide (synthetic p107 peptide encompassing the R1 region) T627A; D628A; S629A”: the response in assay [1] (setting [5]) amounted to 0.04; in assay [1] (setting [6]), 0.02.

Consider pS615-R1 phosphopeptide, wildtype H619A, for which the response in assay [1] (setting [4]) amounted to 0.6.

On to “R1 peptide (synthetic p107 peptide encompassing the R1 region) R626A”, for which, in assay [1] (setting [7]), the response amounted to 0.08.

In the case of “R1 peptide (synthetic p107 peptide encompassing the R1 region) E624A”, the response in assay [1] (setting [3]) turned out to be 0.02.

For “Myc-B55α wild type (from UniProt P63151) EEK-AAA”, in the assay with Flag-pRB, the ratio to parent was 0.28.

On to “R1 peptide (synthetic p107 peptide encompassing the R1 region) K623A”, for which the response in assay [1] (setting [7]) was found to be 0.03.

For the molecule “R1 peptide (synthetic p107 peptide encompassing the R1 region) V622A”, the response in assay [1] (setting [3]) came to 0.88.

Turning to “R1 peptide (synthetic p107 peptide encompassing the R1 region) R621A; V622A; K623A”, the response is 0.8 in assay [1] (setting [5]) and 0.92 in assay [1] (setting [6]).

Consider “R1 peptide (synthetic p107 peptide encompassing the R1 region) E624A; V625A; R626A”, for which the response in assay [1] (setting [5]) was 0.56; in assay [1] (setting [6]), 0.57.

On to “R1 peptide (synthetic p107 peptide encompassing the R1 region) V625A”, for which, in assay [1] (setting [3]), the response turned out to be 0.98.

As to “R1 peptide (synthetic p107 peptide encompassing the R1 region) R621A”, the response in assay [1] (setting [7]) amounted to 0.55.

Regarding “R1 peptide (synthetic p107 peptide encompassing the R1 region) S615A; P616A; L617A”, the response came out at 0.25 in assay [1] (setting [5]) and 0.1 in assay [1] (setting [6]).

Consider “R1 peptide (synthetic p107 peptide encompassing the R1 region) H619A”, for which, in assay [1] (setting [7]), the response stood at 0.38.

Regarding “GFP-p107-R1 (four copies of R1) H619A; R621A; V622A; V625A”, the other: log2 ratio WT-Mut worked out at 3.2 in the assay with PP2A/A and 5.5 with B55α.

In the case of “R1 peptide (synthetic p107 peptide encompassing the R1 region) P620A”, the response in assay [1] (setting [3]) was 0.2.

As for “R1 peptide (synthetic p107 peptide encompassing the R1 region) M618A; H619A; P620A”, the response in assay [1] (setting [5]) came to 0.43; in assay [1] (setting [6]), 0.41.

B1: p107 (M612-S687) (domain or fragment, UniProt P28749 612-687, looked up)
chain: MPMSPLMHPRVKEVRTDSGSLRRDMQPLSPISVHERYSSPTAGSAKRRLFGEDPPKEMLMDKIITEGTKLKIAPSS
modifications: 15N-labeled
notes: p107 residues M612-S687, which include R1, R2 and R3; also called p107_(612-687); source: E. coli BL21, purified (HisTrap, TEV cleavage, heating at 80°C, SEC); not shown: His6, N-terminal, cleaved; MBP, N-terminal, cleaved
In the case of B1, the binding result in assay [2] is given as “binds”.
